To fix the notation:
B1: ETA, wild type, as used in the size exclusion chromatography analysis with Fab301, P25101 E234A (protein)
chain: DNPERYSTNLSNHVDDFTTFRGTELSFLVTTHQPTNLVLPSNGSMHNYCPQQTKITSAFKYINTVISCTIFIVGMVGNATLLRIIYQNKCMRNGPNALIASLALGDLIYVVIDLPINVFKLLAGRWPFDHNDFGVFLCKLFPFLQKSSVGITVLNLCALSVDRYRAVASWSRVQGIGIPLVTAIEIVSIWILSFILAIPEAIGFVMVPFEYRGAQHKTCMLNATSKFMEFYQDVKDWWLFGFYFCMPLVCTAIFYTLMTCEMLNRRNGSLRIALSEHLKQRREVAKTVFCLVVIFALCWFPLHLSRILKKTVYNEMDKNRCELLSFLLLMDYIGINLATMNSCINPIALYFVSKKFKNCFQSCLCCCCYQSKSLMTSVPMNGTSIQWKNHDQNNHNTDRSSHKDSMN
B2: ETA, wild type, as used in the size exclusion chromatography analysis with Fab301, P25101 E230A (protein)
chain: DNPERYSTNLSNHVDDFTTFRGTELSFLVTTHQPTNLVLPSNGSMHNYCPQQTKITSAFKYINTVISCTIFIVGMVGNATLLRIIYQNKCMRNGPNALIASLALGDLIYVVIDLPINVFKLLAGRWPFDHNDFGVFLCKLFPFLQKSSVGITVLNLCALSVDRYRAVASWSRVQGIGIPLVTAIEIVSIWILSFILAIPEAIGFVMVPFAYRGEQHKTCMLNATSKFMEFYQDVKDWWLFGFYFCMPLVCTAIFYTLMTCEMLNRRNGSLRIALSEHLKQRREVAKTVFCLVVIFALCWFPLHLSRILKKTVYNEMDKNRCELLSFLLLMDYIGINLATMNSCINPIALYFVSKKFKNCFQSCLCCCCYQSKSLMTSVPMNGTSIQWKNHDQNNHNTDRSSHKDSMN
B3: ETA, wild type, as used in the size exclusion chromatography analysis with Fab301, P25101 Q235A (protein)
chain: DNPERYSTNLSNHVDDFTTFRGTELSFLVTTHQPTNLVLPSNGSMHNYCPQQTKITSAFKYINTVISCTIFIVGMVGNATLLRIIYQNKCMRNGPNALIASLALGDLIYVVIDLPINVFKLLAGRWPFDHNDFGVFLCKLFPFLQKSSVGITVLNLCALSVDRYRAVASWSRVQGIGIPLVTAIEIVSIWILSFILAIPEAIGFVMVPFEYRGEAHKTCMLNATSKFMEFYQDVKDWWLFGFYFCMPLVCTAIFYTLMTCEMLNRRNGSLRIALSEHLKQRREVAKTVFCLVVIFALCWFPLHLSRILKKTVYNEMDKNRCELLSFLLLMDYIGINLATMNSCINPIALYFVSKKFKNCFQSCLCCCCYQSKSLMTSVPMNGTSIQWKNHDQNNHNTDRSSHKDSMN
B4: ETA, wild type, as used in the size exclusion chromatography analysis with Fab301, P25101 Y231A (protein)
chain: DNPERYSTNLSNHVDDFTTFRGTELSFLVTTHQPTNLVLPSNGSMHNYCPQQTKITSAFKYINTVISCTIFIVGMVGNATLLRIIYQNKCMRNGPNALIASLALGDLIYVVIDLPINVFKLLAGRWPFDHNDFGVFLCKLFPFLQKSSVGITVLNLCALSVDRYRAVASWSRVQGIGIPLVTAIEIVSIWILSFILAIPEAIGFVMVPFEARGEQHKTCMLNATSKFMEFYQDVKDWWLFGFYFCMPLVCTAIFYTLMTCEMLNRRNGSLRIALSEHLKQRREVAKTVFCLVVIFALCWFPLHLSRILKKTVYNEMDKNRCELLSFLLLMDYIGINLATMNSCINPIALYFVSKKFKNCFQSCLCCCCYQSKSLMTSVPMNGTSIQWKNHDQNNHNTDRSSHKDSMN
B5: ETA, wild type, as used in the size exclusion chromatography analysis with Fab301, P25101 F229A (protein)
chain: DNPERYSTNLSNHVDDFTTFRGTELSFLVTTHQPTNLVLPSNGSMHNYCPQQTKITSAFKYINTVISCTIFIVGMVGNATLLRIIYQNKCMRNGPNALIASLALGDLIYVVIDLPINVFKLLAGRWPFDHNDFGVFLCKLFPFLQKSSVGITVLNLCALSVDRYRAVASWSRVQGIGIPLVTAIEIVSIWILSFILAIPEAIGFVMVPAEYRGEQHKTCMLNATSKFMEFYQDVKDWWLFGFYFCMPLVCTAIFYTLMTCEMLNRRNGSLRIALSEHLKQRREVAKTVFCLVVIFALCWFPLHLSRILKKTVYNEMDKNRCELLSFLLLMDYIGINLATMNSCINPIALYFVSKKFKNCFQSCLCCCCYQSKSLMTSVPMNGTSIQWKNHDQNNHNTDRSSHKDSMN
B6: ETA, wild type, as used in the size exclusion chromatography analysis with Fab301, P25101 G233A (protein)
chain: DNPERYSTNLSNHVDDFTTFRGTELSFLVTTHQPTNLVLPSNGSMHNYCPQQTKITSAFKYINTVISCTIFIVGMVGNATLLRIIYQNKCMRNGPNALIASLALGDLIYVVIDLPINVFKLLAGRWPFDHNDFGVFLCKLFPFLQKSSVGITVLNLCALSVDRYRAVASWSRVQGIGIPLVTAIEIVSIWILSFILAIPEAIGFVMVPFEYRAEQHKTCMLNATSKFMEFYQDVKDWWLFGFYFCMPLVCTAIFYTLMTCEMLNRRNGSLRIALSEHLKQRREVAKTVFCLVVIFALCWFPLHLSRILKKTVYNEMDKNRCELLSFLLLMDYIGINLATMNSCINPIALYFVSKKFKNCFQSCLCCCCYQSKSLMTSVPMNGTSIQWKNHDQNNHNTDRSSHKDSMN
B7: ETA, wild type, as used in the size exclusion chromatography analysis with Fab301, P25101 R232A (protein)
chain: DNPERYSTNLSNHVDDFTTFRGTELSFLVTTHQPTNLVLPSNGSMHNYCPQQTKITSAFKYINTVISCTIFIVGMVGNATLLRIIYQNKCMRNGPNALIASLALGDLIYVVIDLPINVFKLLAGRWPFDHNDFGVFLCKLFPFLQKSSVGITVLNLCALSVDRYRAVASWSRVQGIGIPLVTAIEIVSIWILSFILAIPEAIGFVMVPFEYAGEQHKTCMLNATSKFMEFYQDVKDWWLFGFYFCMPLVCTAIFYTLMTCEMLNRRNGSLRIALSEHLKQRREVAKTVFCLVVIFALCWFPLHLSRILKKTVYNEMDKNRCELLSFLLLMDYIGINLATMNSCINPIALYFVSKKFKNCFQSCLCCCCYQSKSLMTSVPMNGTSIQWKNHDQNNHNTDRSSHKDSMN

Fab301, Fab fragment of the anti-ETA monoclonal antibody Getagozumab, sequence (chain, as listed by the source, chain 1 of 2): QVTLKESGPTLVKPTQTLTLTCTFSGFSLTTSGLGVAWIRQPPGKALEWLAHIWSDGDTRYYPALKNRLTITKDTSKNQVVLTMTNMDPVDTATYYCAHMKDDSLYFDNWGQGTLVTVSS
Fab301, Fab fragment of the anti-ETA monoclonal antibody Getagozumab, sequence (chain, as listed by the source, chain 2 of 2): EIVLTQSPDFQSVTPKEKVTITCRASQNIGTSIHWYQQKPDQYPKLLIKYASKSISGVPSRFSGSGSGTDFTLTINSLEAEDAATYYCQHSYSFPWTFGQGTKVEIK

The test has as its target Fab301, Fab fragment of the anti-ETA monoclonal antibody Getagozumab. Put plainly: size exclusion chromatography. The following applies: chain shown with the change;; parent: est. 0 min; read off a plot. In general terms: SEC sorts molecules by how far they enter the pores of the column.
B1: the other: Δt (SEC retention time of mutant–Fab301 complex minus WT–Fab301 complex) stood at 0.019 min.
The figure for B2 is 0.026 min; for B3 it is 0.023 min; for B4 it is 0.039 min.
Consider B5, for which the other: Δt (SEC retention time of mutant–Fab301 complex minus WT–Fab301 complex) was -0.004 min.
As to B6, the other: Δt (SEC retention time of mutant–Fab301 complex minus WT–Fab301 complex) worked out at 0.056 min.
In the case of B7, the other: Δt (SEC retention time of mutant–Fab301 complex minus WT–Fab301 complex) was determined as 0.054 min.

Values taken from article PMC11286772, “Structural basis of antagonist selectivity in endothelin receptors” (Cell Discovery, 2024).
